Where no end group is shown, it is not given here.
Assays:
tPA [1] = biological target: T1, tPA (Homo sapiens, UniProt P00750); experiment: ELISA: binding of tPA to 86-week glycated albumin-AGE preparations; conditions: albumin incubated 86 weeks; 10 mM εACA
T1 construct: purchased Boehringer-Ingelheim (Germany)
Procedure: Binding of the cross-B structure marker tPA to albumin-AGE was tested using an ELISA setup. […] Therefore, we used tPA binding to these two peptides as positive control. The 86-week glycated samples and controls were coated to Greiner microlon plates (catalogue #655092, Greiner, Frickenhausen, Germany). Wells were blocked with Superblock (Pierce, Rockford, Ill., USA). All subsequent incubations were performed in PBS/0.1% (v/v) Tween 20 for one hour at room temperature while shaking, with volumes of 50 μl per well. After incubation, wells were washed five times with 300 μl PBS/0.1% (v/v) Tween 20. Increasing concentrations of tPA were added in triplicate to coated wells as well as to control wells. During tPA incubations of 86-week incubated samples, at least a 123,000 times molar excess of ε-amino caproic acid (εACA, 10 mM) was added to the solutions. εACA is a lysine analogue and is used to avoid potential binding of tPA to albumin via its kringle 2 domain.^50 Monoclonal antibody 374b (American Diagnostica, Instrumentation laboratory, Breda, The Netherlands) and, subsequently, RAMPO (Dako diagnostics, Glostrup, Denmark) was added to the wells at a concentration of 0.3 μg ml^−1. Bound peroxidase-labeled antibody was visualized using 100 μl of a solution containing 8 mg ortho-phenylene-diamine in 20 ml 50 mM citric acid/100 mM Na2HPO4 pH 5.0 with 0.0175% (v/v) H2O2. Staining was stopped upon adding 50 μl of a 2 M H2SO4 solution. Absorbance was read at 490 nm on a Vmax kinetic microplate reader (Molecular Devices, CA, USA). Background signals from non-coated control wells were substracted from corresponding coated wells.

tPA [2] = biological target: T1, tPA; experiment: ELISA: binding of tPA to glycated albumin and Hb; conditions: g6p-glycated protein immobilized
Procedure: Binding of tPA to albumin-g6p (four-week and 23-week incubations), albumin-glyceraldehyde, control albumin, human Hb-g6p (ten-week incubation), Hb control, or to Aβ (1-40) was tested using an enzyme-linked immunosorbent assay (ELISA) set-up. Albumin-g6p and control albumin (2.5 μg ml^−1 in coat buffer, 50 mM Na2CO3/NaHCO3 pH 9.6, 0.02% m/v NaN3, 50 μl/well) were immobilized for one hour at room temperature in 96-well protein Immobilizer plates (Exiqon, Vedbaek, Denmark). Aβ (1-40) (10 μg ml^−1 in coat buffer) was immobilized for 75 minutes at room temperature in a 96-well peptide Immobilizer plate (Exiqon, Vedbaek, Denmark). Control wells were incubated with coat buffer only. After a wash step with 200 μl of PBS/0.1% v/v Tween 20, plates were blocked with 300 μl of PBS/1% v/v Tween 20, for two hours at room temperature while shaking. All subsequent incubations were performed in PBS/0.1% v/v Tween 20 for one hour at room temperature while shaking, with volumes of 50 μl per well. After each incubation, wells were washed five times with 200 μl of PBS/0.1% v/v Tween 20. Increasing amounts of f.l. tPA or K2-P tPA was added in triplicate to coated wells and to control wells. […] Absorbance was read at 490 nm on a Vmax kinetic microplate reader (Molecular Devices, Sunnyvale, Calif., USA).

[3] = Circular dichroism: percentage β-sheet (k2d software); format: physicochemical
Procedure: UV circular dichroism (CD) spectra of peptide and protein solutions ([…] in H2O) were measured on a JASCO J-810 CD spectropolarimeter (Tokyo, Japan). Averaged absorption spectra of five or ten single measurements from 190-240 nm or from 190-250 nm, for fibrin peptides 85, 86, 87 or for albumin, glycated albumin and human Aβ (16-22), respectively, are recorded. The CD spectrum of Aβ (16-22) was measured as a positive control. Aβ (16-22) readily adopts amyloid fiber conformation with cross-β structure when incubated in H2O^45. For albumin and Aβ (16-22), relative percentage of the secondary structure elements present was estimated using k2d software.^48

albumin-g6p = biological target: T2, albumin-g6p (Bos taurus, UniProt P02769); experiment: ELISA: binding of tPA-F-GST and RPTPμ-GST to glycated albumin; design: species or system bovine; conditions: detection with anti-GST 2F3
T2 construct: Bovine serum albumin (BSA) fraction V pH 7.0; host or cells: bovine serum, fraction V
Procedure: (§1) Binding of tPA-F-GST and RPTPμ-GST to fibrous amyloids human Aβ (1-40) and albumin-[…] was assayed with an ELISA. In brief, human Aβ (1-40), albumin-[…], or buffer only, were coated on a peptide I Immobilizer or a protein I Immobilizer, respectively. Wells were incubated with the purified GST-tagged constructs or control medium and binding was detected using primary anti-GST monoclonal antibody 2F3 and RAMPO. The wells were also incubated with […] of tPA in the presence of 10 mM of εACA. Binding of tPA is independent of the lysyl binding site located at the kringle 2 domain. Binding of tPA was measured using primary antibody 374B and RAMPO. Experiments were performed in triplicate and blank readings of non-coated wells were substracted.

Aβ fibrils = biological target: T3, Aβ fibrils (Homo sapiens, UniProt P05067); experiment: Amyloid pull-down with insoluble Aβ fibers; format: binding; conditions: conditioned BHK medium
T3 construct: Peptide Aβ (1-40), containing amino acids as present in the described human Alzheimer peptide; purchased Pepscan, Inc. (The Netherlands) or peptide synthesis facility at the Netherlands Cancer Institute; host or cells: synthetic peptide
Procedure: Conditioned medium of BHK cells expressing GST-tagged tPA F, F-EGF, EGF, K1, F-EGF-K1, FXII F, HGFa F, Fn F4, Fn F5, Fn F4-5 and GST was used for amyloid binding assays. At first, constructs were adjusted to approximately equal concentration using Western blots. Qualitative binding of the recombinant fragments were evaluated using a “pull-down” assay. To this end, the recombinantly made fragments were incubated with either Aβ or IAPP fibrils. Since these peptides form insoluble fibers, unbound proteins can be easily removed from the fibers following centrifugation. The pellets containing the bound fragments were subsequently washed several times. Bound fragments were solubilized in SDS-sample buffer and analyzed by PAGE, as were unbound proteins in the supernatant fraction and starting material. The gels were analyzed using immunoblotting analysis with the anti-GST antibody Z-5.

Aβ (1-40) = Aβ (1-40) (Homo sapiens, UniProt P05067); experiment: ELISA: binding of tPA-F-GST and RPTPμ-GST to human Aβ (1-40); design: Peptide Aβ (1-40), containing amino acids as present in the described human Alzheimer peptide; purchased Pepscan, Inc. (The Netherlands) or peptide synthesis facility at the Netherlands Cancer Institute; host or cells: synthetic peptide; conditions: detection with anti-GST 2F3
Procedure: as §1

[4] = tested on: amyloid deposits in human brain inflicted by AD; experiment: Immunohistochemistry: binding of tPA F-EGF to human AD brain; conditions: 7 nM construct; Congo red fluorescence to locate amyloid
Procedure: Paraffin brain sections of a human inflicted with AD was a kind gift of Prof. Slootweg (Dept. of Pathology, UMC Utrecht). Sections were deparaffinized in a series of xylene-ethanol. Endogenous peroxidases were blocked with methanol/1.5% H2O2 for 15 minutes. After rinsing in H2O, sections were incubated with undiluted formic acid for ten minutes, followed by incubation in PBS for five minutes. Sections were blocked in 10% HPS in PBS for 15 minutes. Sections were exposed for two hours with 7 nM of tPA F-EGF-GST or GST in PBS/0.3% BSA. After three wash steps with PBS, sections were overlayed with 200 ng ml^−1 anti-GST antibody Z-5, for one hour. After washing, ready-to-use goat anti-rabbit Powervision (Immunologic, Duiven, The Netherlands, catalogue #DPVR-55AP) was applied and incubated for one hour. After washing, sections were stained for ten minutes with 3,3′-diamino benzidine (Sigma-Aldrich, St Louis, Mo., USA, catalogue #D-5905), followed by hematoxylin staining for ten seconds. After washing with H2O, sections were incubated with Congo red according to the manufacturer's recommendations (Sigma Diagnostics, St Louis, Mo., USA). […] Analysis of sections was performed on a Leica DMIRBE fluorescence microscope (Rijswijk, The Netherlands). Fluorescence of Congo red was analyzed using an excitation wavelength of 596 nm and an emission wavelength of 620 nm.

mΔIAPP = biological target: T4, mΔIAPP (Mus musculus, UniProt P12968); experiment: Amyloid ELISA with tPA F-EGF-GST: non-amyloid control; format: binding
T4 construct: purchased Pepscan, Inc. or peptide synthesis facility of the Netherlands Cancer Institute; host or cells: chemical synthesis
Procedure: In order to define the affinity of the purified tPA F-EGF-GST recombinant protein, ELISAs were performed with immobilized amyloid (poly)peptides and non-amyloid control ΔmIAPP. Twenty-five μg ml^−1 of Aβ, FP13, IAPP or ΔmIAPP was immobilized on Exiqon peptide immobilizer plates. A concentration series of tPA F-EGF-GST in the presence of excess εACA was added to the wells and binding was assayed using anti-GST antibody Z-5. As a control, GST (Sigma-Aldrich, St. Louis, Mo., USA, catalogue #G-5663) was used at the same concentrations.

T1 sequence (P00750 36-562): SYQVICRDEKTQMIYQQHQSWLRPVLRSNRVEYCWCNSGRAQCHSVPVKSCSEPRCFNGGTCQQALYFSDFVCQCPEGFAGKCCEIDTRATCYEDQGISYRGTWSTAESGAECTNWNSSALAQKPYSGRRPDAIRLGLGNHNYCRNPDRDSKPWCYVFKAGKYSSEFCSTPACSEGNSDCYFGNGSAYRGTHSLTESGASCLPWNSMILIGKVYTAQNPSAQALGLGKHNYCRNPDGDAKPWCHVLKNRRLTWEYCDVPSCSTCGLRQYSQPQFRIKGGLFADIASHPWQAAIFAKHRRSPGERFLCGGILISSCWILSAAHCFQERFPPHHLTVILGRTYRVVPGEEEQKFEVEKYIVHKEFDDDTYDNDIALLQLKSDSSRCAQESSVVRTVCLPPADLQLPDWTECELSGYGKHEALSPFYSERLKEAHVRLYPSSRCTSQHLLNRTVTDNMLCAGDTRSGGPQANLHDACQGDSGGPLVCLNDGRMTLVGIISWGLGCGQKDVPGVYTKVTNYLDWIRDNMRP
T3 sequence (P05067 672-711): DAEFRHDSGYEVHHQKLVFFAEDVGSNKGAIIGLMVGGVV
Chain of Aβ (1-40) (P05067 672-711): as above
T2 sequence (P02769 25-607): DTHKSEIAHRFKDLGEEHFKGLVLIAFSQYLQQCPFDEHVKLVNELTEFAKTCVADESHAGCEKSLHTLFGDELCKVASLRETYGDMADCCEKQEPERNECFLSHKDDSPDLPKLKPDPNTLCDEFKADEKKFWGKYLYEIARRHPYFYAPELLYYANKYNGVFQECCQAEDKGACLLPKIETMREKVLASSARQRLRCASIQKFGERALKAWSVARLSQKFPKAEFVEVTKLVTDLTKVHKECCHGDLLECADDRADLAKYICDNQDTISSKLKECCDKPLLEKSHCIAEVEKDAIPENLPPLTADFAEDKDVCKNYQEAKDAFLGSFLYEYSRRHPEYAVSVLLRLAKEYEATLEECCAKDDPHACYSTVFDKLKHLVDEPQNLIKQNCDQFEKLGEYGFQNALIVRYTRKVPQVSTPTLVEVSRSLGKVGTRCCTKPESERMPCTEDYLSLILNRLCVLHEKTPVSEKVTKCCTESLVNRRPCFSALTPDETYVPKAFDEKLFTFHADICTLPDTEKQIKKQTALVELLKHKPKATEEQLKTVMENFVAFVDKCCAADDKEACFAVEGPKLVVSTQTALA

Albumin-g6p
binding of amyloid-specific serine protease tPA (tPA [1]): bound specifically | tPA binding (tPA [2]): high-affinity tPA binding | β-sheet (%) ([3]; incubation time 2 weeks): 0% | β-sheet (%) ([3]; incubation time 4 weeks): 7% | β-sheet (%) ([3]; incubation time 23 weeks): 19%

tPA-F-GST: amino-terminal finger domain (F) of human tPA, residues Ser1-Ser50, with GST tag (SYQVICRDEKTQMIYQQHQSWLRPVLRSNRVEYCWCNSGRAQCHSVPVKS-{GST}; cysteine pairing not given here)
binding of GST-tagged construct to albumin-g6p (albumin-g6p): bound | binding to Aβ fibers (pull-down, Western blot) (Aβ fibrils): Efficient binding | binding of GST-tagged construct to human Aβ (1-40) (Aβ (1-40)): bound

Hb-g6p: human hemoglobin incubated with glucose-6-phosphate
tPA binding (tPA [2]): high-affinity tPA binding

B1: RPTPμ-GST: extracellular domain of receptor-like protein tyrosine phosphatase μ with GST tag, control (protein, UniProt P28827 21-742, looked up)
extracellular domain: ETFSGGCLFDEPYSTCGYSQSEGDDFNWEQVNTLTKPTSDPWMPSGSFMLVNASGRPEGQRAHLLLPQLKENDTHCIDFHYFVSSKSNSPPGLLNVYVKVNNGPLGNPIWNISGDPTRTWNRAELAISTFWPNFYQVIFEVITSGHQGYLAIDEVKVLGHPCTRTPHFLRIQNVEVNAGQFATFQCSAIGRTVAGDRLWLQGIDVRDAPLKEIKVTSSRRFIASFNVVNTTKRDAGKYRCMIRTEGGVGISNYAELVVKEPPVPIAPPQLASVGATYLWIQLNANSINGDGPIVAREVEYCTASGSWNDRQPVDSTSYKIGHLDPDTEYEISVLLTRPGEGGTGSPGPALRTRTKCADPMRGPRKLEVVEVKSRQITIRWEPFGYNVTRCHSYNLTVHYCYQVGGQEQVREEVSWDTENSHPQHTITNLSPYTNVSVKLILMNPEGRKESQELIVQTDEDLPGAVPTESIQGSTFEEKIFLQWREPTQTYGVITLYEITYKAVSSFDPEIDLSNQSGRVSKLGNETHFLFFGLYPGTTYSFTIRASTAKGFGPPATNQFTTKISAPSMPAYELETPLNQTDNTVTVMLKPAHSRGAPVSVYQIVVEEERPRRTKKTTEILKCYPVPIHFQNASLLNSQYYFAAEFPADSLQAAQPFTIGDNKTYNGYWNTPLLPYKSYRIYFQAASRANGETKIDCVQVATKGAATPKPVPEPEKQTDHTVK
modifications: extracellular domain GST tag
notes: extracellular domain of receptor-like protein tyrosine phosphatase μ with GST tag, control
binding of GST-tagged construct to albumin-g6p (albumin-g6p): no binding | binding of GST-tagged construct to human Aβ (1-40) (Aβ (1-40)): no binding

B2: tPA F-EGF-GST: tPA F-EGF domains with C-terminal GST tag, expressed in BHK cells and purified (protein)
chain: SYQVICRDEKTQMIYQQHQSWLRPVLRSNRVEYCWCNSGRAQCHSVPVKSCSEPRCFNGGTCQQALYFSDFVCQCPEGFAGKCCEID
modifications: left off: small tags and cut ends; a dimerising Fc or GST
notes: tPA F-EGF domains with C-terminal GST tag, expressed in BHK cells and purified
binding to amyloid deposits in AD brain sections [4]: positive for tPA F-EGF-GST binding | binding to Aβ fibers (pull-down, Western blot) (Aβ fibrils): Efficient binding | binding to non-amyloid mΔIAPP (mΔIAPP): No binding
